Experimental data published in patent US20210085781A1 (KORANEX CAPITAL, published 2021).

Molecular target: T1, recombinant SARS-CoV-2 S1 protein expressed from insect (Sf9) cells (S1-His, SinoBiological, Cat. No. … (SARS-CoV-2, UniProt P0DTC2 16-685))
T1 construct: also called S1 protein from insect (Sf9) cells
Assay: ELISA, coated S1 from Sf9 cells, HRP-conjugated lectin 10 ug/mL

B1: Maclura pomifera lectin (MPA; Cat. No: H-3901-1) (other)
chain 1: GVTFDDGAYTGIREINFEYNSETAIGGLRVTYDLNGMPFVAEDHKSFITGFKPVKISLEFPSEYIVEVSGYVGKVEGYTVIRSLTFKTNKQTYGPYGVTNGTPFSLPIENGLIVGFKGSIGYWLDYFSIYLSL
chain 2: GRNGKSQSIIVGPWGDRVTN
mean fold increase of OD450: 7.51 fold
